We go through one molecule from patent US20110104667 (INFOSCITEX CORPORATION, published 2011).

For the data set, the target named is recombinant anthrax protective antigen (rPA) (UniProt P13423 P13423:30-764). The data set can be described thus: ELONA. The note with it: tags: MW about 83 kDa; label: 5' biotin.
Chain of recombinant anthrax protective antigen (rPA) (P13423 30-764, one chain of several): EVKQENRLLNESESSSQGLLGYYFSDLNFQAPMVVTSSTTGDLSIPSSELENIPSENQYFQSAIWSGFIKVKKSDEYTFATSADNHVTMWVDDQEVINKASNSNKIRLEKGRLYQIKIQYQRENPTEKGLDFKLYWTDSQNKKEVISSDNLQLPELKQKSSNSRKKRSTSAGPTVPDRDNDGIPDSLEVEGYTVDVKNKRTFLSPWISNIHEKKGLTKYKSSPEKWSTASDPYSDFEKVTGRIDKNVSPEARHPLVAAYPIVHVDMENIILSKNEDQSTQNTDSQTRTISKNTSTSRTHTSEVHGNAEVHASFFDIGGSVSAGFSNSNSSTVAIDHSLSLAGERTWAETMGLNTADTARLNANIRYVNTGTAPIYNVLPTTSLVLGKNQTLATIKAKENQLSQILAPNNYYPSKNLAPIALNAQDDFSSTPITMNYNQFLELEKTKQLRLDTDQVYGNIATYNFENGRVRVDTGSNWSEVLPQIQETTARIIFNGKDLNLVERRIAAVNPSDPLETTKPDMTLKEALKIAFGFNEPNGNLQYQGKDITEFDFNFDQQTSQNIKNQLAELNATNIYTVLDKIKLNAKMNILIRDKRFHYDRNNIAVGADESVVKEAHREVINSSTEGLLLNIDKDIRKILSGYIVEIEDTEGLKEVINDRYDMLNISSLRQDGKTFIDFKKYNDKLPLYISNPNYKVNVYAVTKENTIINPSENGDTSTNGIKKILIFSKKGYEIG

B1: rPA DNA aptamer, biotinylated (ssDNA)
DNA: TACGACTCACTATAGGGATCCCGAGCTGCAATGGAGTGATTACTAGGGATGTGCGAGGCGCCGAATTCCCTTTAGTGAGGGTT
B1: the binding result is “binds”.
